Reference: publication doi:10.1101/2025.03.17.643777, “Closed State Structure of the Pore Revealed by Uncoupled Shaker K^+ Channel” (bioRxiv, 2025)

Molecular target: the molecule itself
Experiment: cryo-EM structure; single-particle cryo-EM of the purified channel in 0.02% GDN, 150 mM KCl, 50 mM TRIS pH 7.5; C4 symmetry imposed

B1: Shaker-IR-I384R (natural protein, UniProt P08510 1-655, looked up)
chain: MAAVALREQQLQRNSLDGYGSLPKLSSQDEEGGAGHGFGGGPQHFEPIPHDHDFCERVVINVSGLRFETQLRTLNQFPDTLLGDPARRLRYFDPLRNEYFFDRSRPSFDAILYYYQSGGRLRRPVNVPLDVFSEEIKFYELGDQAINKFREDEGFIKEEERPLPDNEKQRKVWLLFEYPESSQAARVVAIISVFVILLSIVIFCLETLPEFKHYKVFNTTTNGTKIEEDEVPDITDPFFLIETLCIIWFTFELTVRFLACPNKLNFCRDVMNVIDIIAIIPYFITLATVVAEEEDTLNLPKAPVSPQDKSSNQAMSLAILRVIRLVRVFRIFKLSRHSKGLQRLGRTLKASMRELGLLIFFLFIGVVLFSSAVYFAEAGSENSFFKSIPDAFWWAVVTMTTVGYGDMTPVGVWGKIVGSLCAIAGVLTIALPVPVIVSNFNYFYHRETDQEEMQSQNFNHVTSCPYLPGTLGQHMKKSSLSESSSDMMDLDDGVESTPGLTETHPGRSAVAPFLGAQQQQQQPVASSLSMSIDKQLQHPLQQLTQTQLYQQQQQQQQQQQNGFKQQQQQTQQQLQQQQSHTINASAAAATSGSGSSGLTMRHNNALAVSIETDV
notes: built on the Shaker-IR model PDB 7SIP; The C-terminal HRV 3C site was cut to release the channel from the beads, so residues of the site may remain; also called uncoupled channel; completely uncoupled I384R mutant; not shown: eGFP, C-terminal, cleaved; 8xHis, C-terminal, cleaved
stoichiometry N: 4
